Patent US20260132178A1 (SYNERKINE PHARMA B V, published 2026)

T1: IL4 (type II) receptor (UniProt P24394 26-825; P78552 22-427, limits assumed)
T1 sequence (looked up) 1: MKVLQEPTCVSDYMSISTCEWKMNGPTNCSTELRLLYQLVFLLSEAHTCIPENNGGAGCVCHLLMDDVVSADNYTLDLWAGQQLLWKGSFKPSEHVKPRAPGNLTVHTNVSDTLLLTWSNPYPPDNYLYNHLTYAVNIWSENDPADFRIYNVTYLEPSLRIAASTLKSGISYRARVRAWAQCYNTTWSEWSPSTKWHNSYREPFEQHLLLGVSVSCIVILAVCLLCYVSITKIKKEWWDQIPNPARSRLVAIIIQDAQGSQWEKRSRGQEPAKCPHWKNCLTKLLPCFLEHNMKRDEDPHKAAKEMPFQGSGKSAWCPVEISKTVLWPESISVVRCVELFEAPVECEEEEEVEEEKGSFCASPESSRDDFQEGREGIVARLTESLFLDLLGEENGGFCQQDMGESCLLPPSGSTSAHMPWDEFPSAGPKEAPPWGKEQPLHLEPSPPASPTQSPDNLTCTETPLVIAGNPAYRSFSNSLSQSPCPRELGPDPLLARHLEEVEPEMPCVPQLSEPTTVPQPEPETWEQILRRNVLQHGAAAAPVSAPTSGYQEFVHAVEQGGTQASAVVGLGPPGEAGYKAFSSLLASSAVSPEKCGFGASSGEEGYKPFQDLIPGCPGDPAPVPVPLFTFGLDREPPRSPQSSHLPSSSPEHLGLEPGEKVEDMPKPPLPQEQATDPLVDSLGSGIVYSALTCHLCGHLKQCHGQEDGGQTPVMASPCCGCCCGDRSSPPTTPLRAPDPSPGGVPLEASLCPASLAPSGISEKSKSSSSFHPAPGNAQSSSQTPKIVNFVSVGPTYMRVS
T1 sequence (looked up) 2: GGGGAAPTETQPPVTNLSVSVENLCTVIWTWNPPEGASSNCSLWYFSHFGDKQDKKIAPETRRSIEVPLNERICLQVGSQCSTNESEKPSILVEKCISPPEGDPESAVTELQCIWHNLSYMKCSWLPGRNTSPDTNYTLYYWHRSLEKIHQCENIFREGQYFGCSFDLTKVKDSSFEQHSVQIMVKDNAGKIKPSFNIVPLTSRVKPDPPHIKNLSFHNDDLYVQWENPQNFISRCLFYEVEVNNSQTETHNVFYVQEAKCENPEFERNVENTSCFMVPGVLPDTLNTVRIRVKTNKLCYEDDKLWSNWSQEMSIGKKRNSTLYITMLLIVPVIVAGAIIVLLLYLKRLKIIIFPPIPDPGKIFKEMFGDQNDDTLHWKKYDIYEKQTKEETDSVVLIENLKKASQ

T2: IL10 receptor (UniProt Q13651 22-578; Q08334 20-325, limits assumed)
T2 sequence (looked up) 1: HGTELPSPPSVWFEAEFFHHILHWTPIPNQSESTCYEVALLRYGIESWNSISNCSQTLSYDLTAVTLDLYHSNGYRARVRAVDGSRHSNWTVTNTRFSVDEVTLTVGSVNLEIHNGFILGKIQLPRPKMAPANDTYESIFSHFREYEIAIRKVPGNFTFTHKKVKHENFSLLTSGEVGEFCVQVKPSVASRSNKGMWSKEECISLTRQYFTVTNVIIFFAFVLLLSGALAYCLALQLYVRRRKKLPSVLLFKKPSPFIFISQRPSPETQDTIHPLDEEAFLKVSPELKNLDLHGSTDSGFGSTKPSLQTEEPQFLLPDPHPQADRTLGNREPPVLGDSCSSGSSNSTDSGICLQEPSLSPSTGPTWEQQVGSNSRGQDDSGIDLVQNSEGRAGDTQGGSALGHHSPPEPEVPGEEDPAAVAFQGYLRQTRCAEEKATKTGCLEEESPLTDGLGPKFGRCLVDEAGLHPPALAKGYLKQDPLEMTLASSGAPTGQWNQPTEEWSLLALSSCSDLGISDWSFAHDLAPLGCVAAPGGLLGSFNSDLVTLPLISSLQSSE
T2 sequence (looked up) 2: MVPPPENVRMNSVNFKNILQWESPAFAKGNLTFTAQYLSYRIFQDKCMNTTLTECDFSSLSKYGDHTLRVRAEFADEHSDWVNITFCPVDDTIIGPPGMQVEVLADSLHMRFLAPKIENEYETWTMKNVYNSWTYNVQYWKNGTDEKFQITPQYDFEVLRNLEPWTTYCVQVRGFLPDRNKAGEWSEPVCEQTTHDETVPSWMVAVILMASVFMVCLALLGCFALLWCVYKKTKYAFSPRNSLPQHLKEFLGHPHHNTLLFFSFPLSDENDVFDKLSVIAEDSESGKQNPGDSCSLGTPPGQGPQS

B1: IL4-Fc (Fc fusion)
chain: HKCDITLQEIIKTLNSLTEQKTLCTELTVTDIFAASKNTTEKETFCRAATVLRQFYSHHEKDTRCLGATAQQFHRHKQLIRFLKRLDRNLWGLAGLNSCPVKEANQSTLENFLERLKTIMREKYSKCSSGSGGGGSGTCPPCPAPELLGGPSVFLFPPKPKDTLMISRTPEVTCVVVDVSHEDPEVKFNWYVDGVEVHNAKTKPREEQYNSTYRVVSVLTVLHQDWLNGKEYKCKVSNKALPAPIEKTISKAKGQPREPQVCTLPPSRDELTKNQVSLSCAVKGFYPSDIAVEWESNGQPENNYKTTPPVLDSDGSFFLVSKLTVDKSRWQQGNVFSCSVMHEALHNHYTQKSLSLSPGK
B2: IL4-10 fusion (wt, dimer) (ligand)
chain: HKCDITLQEIIKTLNSLTEQKTLCTELTVTDIFAASKNTTEKETFCRAATVLRQFYSHHEKDTRCLGATAQQFHRHKQLIRFLKRLDRNLWGLAGLNSCPVKEANQSTLENFLERLKTIMREKYSKCSSGSGGGGSGTSPGQGTQSENSCTHFPGNLPNMLRDLRDAFSRVKTFFQMKDQLDNLLLKESLLEDFKGYLGCQALSEMIQFYLEEVMPQAENQDPDIKAHVNSLGENLKTLRLRLRRCHRFLPCENKSKAVEQVKNAFNKLQEKGIYKAMSEFDIFINYIEAYMTMKIRN
B3: IL4-10M(S) (ligand)
chain: KSKAVEQVKNAFNKLQEKGIYKAMSEFDIFINYIEAYMTMKIRNGSGGGGSGTSPGQGTQSENSCTHFPGNLPNMLRDLRDAFSRVKTFFQMKDQLDNLLLKESLLEDFKGYLGCQALSEMIQFYLEEVMPQAENQDPDIKAHVNSLGENLKTLRLRLRRCHRFLPCENGSGGGGSGTHKCDITLQEIIKTLNSLTEQKTLCTELTVTDIFAASKNTTEKETFCRAATVLRQFYSHHEKDTRCLGATAQQFHRHKQLIRFLKRLDRNLWGLAGLNSCPVKEANQSTLENFLERLKTIMREKYSKCSSHHHHHH
B4: IL10M(S) (ligand)
chain: KSKAVEQVKNAFNKLQEKGIYKAMSEFDIFINYIEAYMTMKIRNGSGGGGSGTSPGQGTQSENSCTHFPGNLPNMLRDLRDAFSRVKTFFQMKDQLDNLLLKESLLEDFKGYLGCQALSEMIQFYLEEVMPQAENQDPDIKAHVNSLGENLKTLRLRLRRCHRFLPCEN
B5: IL4-10M(J) (ligand)
chain: HKCDITLQEIIKTLNSLTEQKTLCTELTVTDIFAASKNTTEKETFCRAATVLRQFYSHHEKDTRCLGATAQQFHRHKQLIRFLKRLDRNLWGLAGLNSCPVKEANQSTLENFLERLKTIMREKYSKCSSGSGGGGSGTSPGQGTQSENSCTHFPGNLPNMLRDLRDAFSRVKTFFQMKDQLDNLLLKESLLEDFKGYLGCQALSEMIQFYLEEVMPQAENQDPDIKAHVNSLGENLKTLRLRLRRCHRFLPCENGGGSGGKSKAVEQVKNAFNKLQEKGIYKAMSEFDIFINYIEAYMTMKIRN
B6: IL10M(J) (ligand)
chain: SPGQGTQSENSCTHFPGNLPNMLRDLRDAFSRVKTFFQMKDQLDNLLLKESLLEDFKGYLGCQALSEMIQFYLEEVMPQAENQDPDIKAHVNSLGENLKTLRLRLRRCHRFLPCENGGGSGGKSKAVEQVKNAFNKLQEKGIYKAMSEFDIFINYIEAYMTMKIRN
B7: IL4-10M(J) mouse Fc (Fc fusion)
chain 1: HKCDITLQEIIKTLNSLTEQKTLCTELTVTDIFAASKNTTEKETFCRAATVLRQFYSHHEKDTRCLGATAQQFHRHKQLIRFLKRLDRNLWGLAGLNSCPVKEANQSTLENFLERLKTIMREKYSKCSSGSGGGGSGTCKPCICTVPEVSSVFIFPPKPKDVLTITLTPKVTCVVVAISKDDPEVQFSWFVDDVEVHTAQTKPREEQINSTFRSVSELPIMHQDWLNGKEFKCRVNSAAFPAPIEKTISKTKGRPKAPQVYTIPPPKKQMAKDKVSLTCMITNFFPEDITVEWQWNGQPAENYKNTQPIMKTDGSYFVYSKLNVQKSNWEAGNTFTCSVLHEGLHNHHTEKSLSHSPGK
chain 2: SPGQGTQSENSCTHFPGNLPNMLRDLRDAFSRVKTFFQMKDQLDNLLLKESLLEDFKGYLGCQALSEMIQFYLEEVMPQAENQDPDIKAHVNSLGENLKTLRLRLRRCHRFLPCENGGGSGGKSKAVEQVKNAFNKLQEKGIYKAMSEFDIFINYIEAYMTMKIRNTGSGGGGSGTCKPCICTVPEVSSVFIFPPKPKDVLTITLTPKVTCVVVAISKDDPEVQFSWFVDDVEVHTAQTKPREEQINSTFRSVSELPIMHQDWLNGKEFKCRVNSAAFPAPIEKTISKTKGRPKAPQVYTIPPPKEQMAKDKVSLTCMITNFFPEDITVEWQWNGQPAENYKNTQPIMDTDGSYFVYSELNVQKSNWEAGNTFTCSVLHEGLHNHHTEDSLSHSPGK
B8: IL4-13 Fc (mouse) (Fc fusion)
chain 1: HIHGCDKNHLREIIGILNEVTGEGTPCTEMDVPNVLTATKNTTESELVCRASKVLRIFYLKHGKTPCLKKNSSVLMELQRLFRAFRCLDSSISCTMNESKSTSLKDFLESLKSIMQMDYSGSGGGGSGTCKPCICTVPEVSSVFIFPPKPKDVLTITLTPKVTCVVVAISKDDPEVQFSWFVDDVEVHTAQTKPREEQINSTFRSVSELPIMHQDWLNGKEFKCRVNSAAFPAPIEKTISKTKGRPKAPQVYTIPPPKKQMAKDKVSLTCMITNFFPEDITVEWQWNGQPAENYKNTQPIMKTDGSYFVYSKLNVQKSNWEAGNTFTCSVLHEGLHNHHTEKSLSHSPGK
chain 2: APGPVPRSVSLPLTLKELIEELSNITQDQTPLCNGSMVWSVDLAAGGFCVALDSLTNISNCNAIYRTQRILHGLCNRKAPTTVSSLPDTKIEVAHFITKLLSYTKQLFRHGPFTGSGGGGSGTCKPCICTVPEVSSVFIFPPKPKDVLTITLTPKVTCVVVAISKDDPEVQFSWFVDDVEVHTAQTKPREEQINSTFRSVSELPIMHQDWLNGKEFKCRVNSAAFPAPIEKTISKTKGRPKAPQVYTIPPPKEQMAKDKVSLTCMITNFFPEDITVEWQWNGQPAENYKNTQPIMDTDGSYFVYSELNVQKSNWEAGNTFTCSVLHEGLHNHHTEDSLSHSPGK
B9: IL4-13 (mouse) (ligand)
chain: HHHHHHIHGCDKNHLREIIGILNEVTGEGTPCTEMDVPNVLTATKNTTESELVCRASKVLRIFYLKHGKTPCLKKNSSVLMELQRLFRAFRCLDSSISCTMNESKSTSLKDFLESLKSIMQMDYSGSGGGGSGTAPGPVPRSVSLPLTLKELIEELSNITQDQTPLCNGSMVWSVDLAAGGFCVALDSLTNISNCNAIYRTQRILHGLCNRKAPTTVSSLPDTKIEVAHFITKLLSYTKQLFRHGPF

target: T1, IL4 (type II) receptor; test: cell-based or functional assay

| Binder | HEK-Blue IL4/13 EC50 (STAT6-induced SEAP expression) [nM] |
| --- | --- |
| B1 | 0.0201 |

target: T2, IL10 receptor; test: cell-based or functional assay

| Binder | HEK-Blue IL10 EC50 (STAT-3 mediated SEAP expression) [nM] |
| --- | --- |
| B2 | 0.0289 |
| B3 | 0.117 |
| B4 | 0.149 |
| B5 | 0.0778 |
| B6 | 0.0634 |
| B7 | 0.52 |

target: mIL4Ra/mIL13Ra2 (mouse, UniProt P16382 26-257; O88786 22-355); test: cell-based or functional assay
Sequence (P16382 26-257, chain 1 of 2): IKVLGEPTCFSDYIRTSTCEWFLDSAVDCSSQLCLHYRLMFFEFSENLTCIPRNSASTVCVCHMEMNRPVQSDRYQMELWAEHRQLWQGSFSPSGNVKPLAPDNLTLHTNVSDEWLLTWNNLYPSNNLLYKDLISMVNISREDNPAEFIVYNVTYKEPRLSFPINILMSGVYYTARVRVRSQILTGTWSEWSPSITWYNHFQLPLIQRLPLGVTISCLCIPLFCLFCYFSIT
Sequence (O88786 22-355, chain 2 of 2): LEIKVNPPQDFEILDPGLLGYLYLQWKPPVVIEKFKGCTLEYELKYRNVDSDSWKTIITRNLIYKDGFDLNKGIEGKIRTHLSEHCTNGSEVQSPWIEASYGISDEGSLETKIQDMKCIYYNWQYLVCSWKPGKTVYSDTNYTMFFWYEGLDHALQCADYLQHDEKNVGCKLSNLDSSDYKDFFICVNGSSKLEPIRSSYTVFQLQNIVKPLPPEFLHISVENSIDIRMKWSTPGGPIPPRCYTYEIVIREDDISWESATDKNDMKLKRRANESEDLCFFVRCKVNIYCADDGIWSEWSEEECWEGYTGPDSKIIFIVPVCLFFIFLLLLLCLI

| Binder | Heterologous clustering mIL4Ra/mIL13Ra2 EC50 (NanoBiT enzyme complementation) [pM] |
| --- | --- |
| B8 | 1100 |
| B9 | 187 |
